Data on two molecules can be found in PMC5314766.

A value given as a limit tells only on which side of the number the result lay.

Experiment in all cases: fluorescence polarization
(Fluorescence polarisation rises when a labelled molecule tumbles more slowly, as on binding a larger partner.)

The target of series [1] is Exo10(6exo-) Partial lasso (Saccharomyces cerevisiae, UniProt Q12149;P46948;Q12277;P25359;Q05636;P53256;P48240;P38792;Q08285;P53859 …, D238N).
Series [2] deals with Exo10(6exo-) Lassoless (Saccharomyces cerevisiae, UniProt Q12149;P46948;Q12277;P25359;Q05636;P53256;P48240;P38792;Q08285;P53859 …, D238N).
Series [3] addresses Exo11(44exo-/6exo-) Lassoless (Saccharomyces cerevisiae, UniProt Q12149;Q08162;P46948;Q12277;P25359;Q05636;P53256;P48240;P38792;Q08285;P53859 …, D238N;D551N).
The target of series [4] is T1, Rrp6 EARless, catalytically dead (Saccharomyces cerevisiae, UniProt Q12149 128-733, D238N;del517-617).
T1 sequence: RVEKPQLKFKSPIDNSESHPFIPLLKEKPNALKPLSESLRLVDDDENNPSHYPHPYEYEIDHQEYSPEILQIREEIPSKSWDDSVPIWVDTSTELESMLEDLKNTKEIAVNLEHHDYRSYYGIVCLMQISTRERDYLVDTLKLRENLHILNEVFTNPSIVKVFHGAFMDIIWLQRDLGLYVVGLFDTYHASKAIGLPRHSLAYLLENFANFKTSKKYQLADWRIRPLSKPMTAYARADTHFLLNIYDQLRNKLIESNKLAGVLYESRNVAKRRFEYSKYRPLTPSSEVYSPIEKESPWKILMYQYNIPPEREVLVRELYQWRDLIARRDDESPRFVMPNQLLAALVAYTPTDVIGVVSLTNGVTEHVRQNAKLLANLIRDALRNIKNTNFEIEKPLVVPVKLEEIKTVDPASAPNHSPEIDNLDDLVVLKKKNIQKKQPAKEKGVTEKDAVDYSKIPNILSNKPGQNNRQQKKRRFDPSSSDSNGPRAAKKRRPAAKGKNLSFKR

For series [5], the target named is T2, Rrp6 Lassoless, catalytically dead (Saccharomyces cerevisiae, UniProt Q12149 128-634, D238N).
T2 sequence: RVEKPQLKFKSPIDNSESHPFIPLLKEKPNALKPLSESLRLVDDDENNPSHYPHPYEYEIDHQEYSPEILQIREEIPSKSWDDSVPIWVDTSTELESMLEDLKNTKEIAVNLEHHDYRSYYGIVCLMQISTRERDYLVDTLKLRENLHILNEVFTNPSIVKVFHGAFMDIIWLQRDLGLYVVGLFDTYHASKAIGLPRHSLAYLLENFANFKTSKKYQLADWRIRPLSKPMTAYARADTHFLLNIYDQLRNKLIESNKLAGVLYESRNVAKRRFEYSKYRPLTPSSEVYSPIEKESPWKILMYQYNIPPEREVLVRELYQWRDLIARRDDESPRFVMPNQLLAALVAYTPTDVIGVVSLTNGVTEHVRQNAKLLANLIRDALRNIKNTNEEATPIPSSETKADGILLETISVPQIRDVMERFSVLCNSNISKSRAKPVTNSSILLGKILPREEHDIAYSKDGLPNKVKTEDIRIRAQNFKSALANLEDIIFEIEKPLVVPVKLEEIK

Series [6] addresses T3, Rrp6 Lasso (CTD intact), catalytically dead (Saccharomyces cerevisiae, UniProt Q12149 128-733, D238N).
T3 sequence: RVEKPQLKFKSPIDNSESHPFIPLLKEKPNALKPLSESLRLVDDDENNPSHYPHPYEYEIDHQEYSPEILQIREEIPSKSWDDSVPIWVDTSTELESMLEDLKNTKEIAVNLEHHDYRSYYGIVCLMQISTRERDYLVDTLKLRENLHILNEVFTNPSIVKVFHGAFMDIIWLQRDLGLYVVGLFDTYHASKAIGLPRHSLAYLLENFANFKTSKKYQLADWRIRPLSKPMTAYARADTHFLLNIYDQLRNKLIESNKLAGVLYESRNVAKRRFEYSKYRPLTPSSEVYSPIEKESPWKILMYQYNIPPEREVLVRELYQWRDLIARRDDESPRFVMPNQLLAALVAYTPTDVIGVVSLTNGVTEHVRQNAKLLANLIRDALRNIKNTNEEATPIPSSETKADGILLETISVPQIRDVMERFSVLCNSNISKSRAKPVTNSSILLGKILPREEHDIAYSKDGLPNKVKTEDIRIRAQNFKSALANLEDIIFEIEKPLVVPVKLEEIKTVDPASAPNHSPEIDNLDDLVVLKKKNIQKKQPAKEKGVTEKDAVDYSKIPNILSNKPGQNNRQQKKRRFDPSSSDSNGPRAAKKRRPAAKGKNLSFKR

In series [7] the target is Exo10(6exo-) Lasso (Saccharomyces cerevisiae, UniProt Q12149;P46948;Q12277;P25359;Q05636;P53256;P48240;P38792;Q08285;P53859 …, D238N).

As for AAAAAAAAAAAAAAAAAAAAAAAAAAAAAAAAAAAAA (ssRNA) [37 nt polyA RNA], the binding signal in series [1] is more than 15 fold weaker than P6; in series [2], more than 15 fold weaker than P6; in series [3], 6 fold weaker than P9; in series [4], 6 fold tighter than lassoless (P4); in series [5], 4 fold weaker than lasso-containing (P3); in series [6], 4 fold tighter than lassoless (P4).
AUUAUUUAUUUAUUAUUAUUUAUU (ssRNA) [AU-rich RNA 24 nt]: the binding result in series [7] is “binds”.
